Data reported in patent US20260266848A1, “COMPOSITIONS AND METHODS FOR DIAGNOSING AND TREATING DYSTONIA” (Duke University, priority 2023, published 2026).

B1: Gsto1 (protein, UniProt O09131 2-240, looked up)
Glutathione S-transferase …: SGESSRSLGKGSAPPGPVPEGQIRVYSMRFCPFAQRTLMVLKAKGIRHEVININLKNKPEWFFEKNPLGLVPVLENSQGHLVTESVITCEYLDEAYPEKKLFPDDPYKKARQKMTLESFSKVPPLIASFVRSKRKEDSPNLREALENEFKKLEEGMDNYKSFLGGDSPSMVDYLTWPWFQRLEALELKECLAHTPKLKLWMAAMQQDPVASSHKIDAKTYREYLNLYLQDSPEACDYGL
B2: Cnn3 (protein, UniProt Q9DAW9 1-330, looked up)
Calponin-3: MTHFNKGPSYGLSAEVKNKIASKYDQQAEEDLRNWIEEVTGLGIGTNFQLGLKDGIILCELINKLQPGSVKKVNESSLNWPQLENIGNFIKAIQAYGMKPHDIFEANDLFENGNMTQVQTTLVALAGLAKTKGFHTTIDIGVKYAEKQTRRFDEGKLKAGQSVIGLQMGTNKCASQAGMTAYGTRRHLYDPKMQTDKPFDQTTISLQMGTNKGASQAGMLAPGTRRDIYDQKLTLQPVDNSTISLQMGTNKVASQKGMSVYGLGRQVYDPKYCAAPTEPVIHNGSQGTGTNGSEISDSDYQAEYPDEYHGEYPDDYPREYQYGDDQGIDY
B3: Pld3 (protein, UniProt O35405 1-488, looked up)
5'-3' exonuclease PLD3: MKPKLMYQELKVPVEEPAGELPLNEIEAWKAAEKKARWVLLVLILAVVGFGALMTQLFLWEYGDLHLFGPNQRPAPCYDPCEAVLVESIPEGLEFPNATTSNPSTSQAWLGLLAGAHSSLDIASFYWTLTNNDTHTQEPSAQQGEEVLQQLQALAPRGVKVRIAVSKPNGPLADLQSLLQSGAQVRMVDMQKLTHGVLHTKFWVVDQTHFYLGSANMDWRSLTQVKELGVVMYNCSCLARDLTKIFEAYWFLGQAGSSIPSTWPRSFDTRYNQETPMEICLNGTPALAYLASAPPPLCPSGRTPDLKALLNVVDSARSFIYIAVMNYLPTMEFSHPRRFWPAIDDGLRRAAYERGVKVRLLISCWGHSDPSMRSFLLSLAALHDNHTHSDIQVKLFVVPTDESQARIPYARVNHNKYMVTERASYIGTSNWSGSYFTETAGTSLLVTQNGHGGLRSQLEAVFLRDWESPYSHDLDTSANSVGNACRLL
B4: Vapa (protein, UniProt Q9WV55 2-249, looked up)
Vesicle-associated membrane …: ASASGAMAKHEQILVLDPPSDLKFKGPFTDVVTTNLKLQNPSDRKVCFKVKTTAPRRYCVRPNSGIIDPGSIVTVSVMLQPFDYDPNEKSKHKFMVQTIFAPPNISDMEAVWKEAKPDELMDSKLRCVFEMPNENDKLNDMEPSKAVPLNASKQDGPLPKPHSVSLNDTETRKLMEECKRLQGEMMKLSEENRHLRDEGLRLRKVAHSDKPGSTSAVSFRDNVTSPLPSLLVVIAAIFIGFFLGKFIL
B5: Impa1 (protein, UniProt O55023 1-277, looked up)
Inositol monophosphatase 1: MADPWQECMDYAVILARQAGEMIREALKNEMDVMIKSSPADLVTVTDQKVEKMLMSSIKEKYPCHSFIGEESVAAGEKTVFTESPTWFIDPIDGTTNFVHRFPFVAVSIGFLVNKEMEFGIVYSCVEDKMYTGRKGKGAFCNGQKLQVSQQEDITKSLLVTELGSSRKPETLRIVLSNMEKLCSIPIHGIRSVGTAAVNMCLVATGGADAYYEMGIHCWDMAGAGIIVTEAGGVLMDVTGGPFDLMSRRIIAANSITLAKRIAKEIEIIPLQRDDES
B6: Hnrnph1 (protein, UniProt O35737 1-449, looked up)
Heterogeneous nuclear …: MMLGAEGGEGFVVKVRGLPWSCSADEVQRFFSDCKIQNGAQGIRFIYTREGRPSGEAFVELESEDEVKLALKKDRETMGHRYVEVFKSNNVEMDWVLKHTGPNSPDTANDGFVRLRGLPFGCSKEEIVQFFSGLEIVPNGITLPVDFQGRSTGEAFVQFASQEIAEKALKKHKERIGHRYIEIFKSSRAEVRTHYDPPRKLMAMQRPGPYDRPGAGRGYNSIGRGAGFERMRRGAYGGGYGGYDDYNGYNDGYGFGSDRFGRDLNYCFSGMSDHRYGDGGSTFQSTTGHCVHMRGLPYRATENDIYNFFSPLNPVRVHIEIGPDGRVTGEADVEFATHEDAVAAMSKDKANMQHRYVELFLNSTAGASGGAYEHRYVELFLNSTAGASGGAYGSQMMGGMGLSNQSSYGGPASQQLSGGYGGGYGGQSSMSGYDQVLQENSSDFQSNIA
B7: Fus (protein, UniProt P56959 1-518, looked up)
RNA-binding protein FUS: MASNDYTQQATQSYGAYPTQPGQGYSQQSSQPYGQQSYSGYGQSADTSGYGQSSYGSSYGQTQNTGYGTQSAPQGYGSTGGYGSSQSSQSSYGQQSSYPGYGQQPAPSSTSGSYGGSSQSSSYGQPQSGGYGQQSGYGGQQQSYGQQQSSYNPPQGYGQQNQYNSSSGGGGGGGGGNYGQDQSSMSGGGGGGGYGNQDQSGGGGGGYGGGQQDRGGRGRGGGGGYNRSSGGYEPRGRGGGRGGRGGMGGSDRGGFNKFGGPRDQGSRHDSEQDNSDNNTIFVQGLGENVTIESVADYFKQIGIIKTNKKTGQPMINLYTDRETGKLKGEATVSFDDPPSAKAAIDWFDGKEFSGNPIKVSFATRRADFNRGGGNGRGGRGRGGPMGRGGYGGGGSGGGGRGGFPSGGGGGGGQQRAGDWKCPNPTCENMNFSWRNECNQCKAPKPDGPGGGPGGSHMGGNYGDDRRGRGGYDRGGYRGRGGDRGGFRGGRGGGDRGGFGPGKMDSRGEHRQDRRERPY
B8: Ube2n (protein, UniProt P61089 1-152, looked up)
Ubiquitin-conjugating enzyme …: MAGLPRRIIKETQRLLAEPVPGIKAEPDESNARYFHVVIAGPQDSPFEGGTFKLELFLPEEYPMAAPKVRFMTKIYHPNVDKLGRICLDILKDKWSPALQIRTVLLSIQALLSAPNPDDPLANDVAEQWKTNEAQAIETARAWTRLYAMNNI
B9: Uso1 (protein, UniProt Q9Z1Z0 1-959, looked up)
General vesicular transport …: MNFLRGVMGGQSAGPQHTEAETIQKLCDRVASSTLLDDRRNAVRALKSLSKKYRLEVGIQAMEHLIHVLQTDRSDSEIIAYALDTLYNIISNDEEEELEENSTRQSEDLGSQFTEIFIKQPENVTLLLSLLEEFDFHVRWPGVRLLTSLLKQLGPPVQQIILVSPMGVSRLMDLLADSREIIRNDGVLLLQALTRSNGAIQKIVAFENAFERLLDIITEEGNSDGGIVVEDCLILLQNLLKTNNSNQNFFKEGSYIQRMKPWFEVGEENSGWSAQKVTNLHLMLQLVRVLVSPTNPPGATSSCQKAMFQCGLLQQLCTILMATGIPADILTETINTVSEVIRGCQVNQDYFASVNAPSNPPRPAIVVLLMSMVNERQPFVLRCAVLYCFQCFLYKNEKGQGEIVATLLPSTIDATGNSVSAGQLLCGGLFSTDSLSNWCAAVALAHALQGNATQKEQLLRVQLATSIGNPPVSLLQQCTNILSQGSKIQTRVGLLMLLCTWLSNCPIAVTHFLHNSANVPFLTGQIAENLGEEEQLVQGLCALLLGISIYFNDNSLENYTKEKLKQLIEKRIGKENFIEKLGFISKHELYSRASQKPQPNFPSPEYMIFDHEFTKLVKELEGVITKAIYKSSEEDKKEEEVKKTLEQHDNIVTHYKNMIREQDLQLEELKQQVSTLKCQNEQLQTAVTQQASQIQQHKDQYNLLKVQLGKDNHHQGSHGDGAQVNGIQPEEISRLREEIEELKSQQALLQGQLAEKDSLIENLKSSQASGMSEQASATCPPRDPEQVAELKQELTALKSQLCSQSLEITRLQTENCELLQRAETLAKSVPVEGESEHVSAAKTTDVEGRLSALLQETKELKNEIKALSEERTAIQKQLDSSNSTIAILQTEKDKLDLEVTDSKKEQDDLLVLLADQDQKILSLKSKLKDLGHPVEEEDESGDQEDDDDEIDDGDKDQDI
B10: C1qtnf3 (protein, UniProt Q9BXJ4 23-246, looked up)
Complement C1q tumor necrosis …: QDEYMESPQTGGLPPDCSKCCHGDYSFRGYQGPPGPPGPPGIPGNHGNNGNNGATGHEGAKGEKGDKGDLGPRGERGQHGPKGEKGYPGIPPELQIAFMASLATHFSNQNSGIIFSSVETNIGNFFDVMTGRFGAPVSGVYFFTFSMMKHEDVEEVYVYLMHNGNTVFSMYSYEMKGKSDTSSNHAVLKLAKGDEVWLRMGNGALHGDHQRFSTFAGFLLFETK
B11: Mdk (protein, UniProt P12025 23-140, looked up)
Midkine: KKKEKVKKGSECSEWTWGPCTPSSKDCGMGFREGTCGAQTQRVHCKVPCNWKKEFGADCKYKFESWGACDGSTGTKARQGTLKKARYNAQCQETIRVTKPCTSKTKSKTKAKKGKGKD
B12: Rab6a (protein, UniProt P35279 2-208, looked up)
Ras-related protein Rab-6A: SAGGDFGNPLRKFKLVFLGEQSVGKTSLITRFMYDSFDNTYQATIGIDFLSKTMYLEDRTVRLQLWDTAGQERFRSLIPSYIRDSTVAVVVYDITNVNSFQQTTKWIDDVRTERGSDVIIMLVGNKTDLADKRQVSIEEGERKAKELNVMFIETSAKAGYNVKQLFRRVAAALPGMESTQDRSREDMIDIKLEKPQEQPVNEGGCSC

System: DYT-TOR1A MEF EVs
Test: Quantitative LC-MS/MS proteomics of EVs from drug-treated DYT-TOR1A MEF cultures (ritonavir, salubrinal)
Type: cell-based, mouse
Set-up: key to RTV Corrective Direction / RTV Corrective Direction, Grwd1 / RTV Corrective Direction, Srrm2 / RTV Corrective Direction, Rbm17 / RTV Corrective Direction, Dcaf8 / RTV Corrective Direction, Edil3 / RTV Corrective Direction, Timp3 / RTV Corrective Direction, Heatr3 / RTV Corrective Direction, Brd4 / RTV Corrective Direction, P3h4 / RTV Corrective Direction, Pacsin3 / RTV Corrective Direction, Naa50 / RTV Corrective Direction, Lpar6 / RTV Corrective Direction, Ndrg1 / RTV Corrective Direction, Kntc1 / RTV Corrective Direction, Cdk11b / RTV Corrective Direction, Sumo1 / RTV Corrective Direction, Lsm4 / RTV Corrective Direction, Hmga2 / RTV Corrective Direction, Cstf1 / RTV Corrective Direction, Tes / RTV Corrective Direction, Sbno1 / RTV Corrective Direction, Unc119b / RTV Corrective Direction, Cfdp1 / RTV Corrective Direction, Sec61b: YES = protein abundance effect opposite to DYT/WT
Settings: EV protein abundance, DYT + RTV (ritonavir) vs DYT, direction compared with DYT/WT

| Molecule | RTV Corrective Direction |
| --- | --- |
| B1 | YES |
| B2 | YES |
| B3 | YES |
| B4 | YES |
| B5 | YES |
| B6 | YES |
| B7 | YES |
| B8 | YES |
| B9 | YES |
| B10 | YES |
| B11 | YES |
| B12 | YES |

Same assay, conditions: EV protein abundance, ritonavir (RTV)-treated DYT vs DYT

| Molecule | DYT + RTV/DYT Cohen's d |
| --- | --- |
| B1 | 3.45 |
| B2 | 4.78 |
| B3 | 0.61 |
| B4 | 1.91 |
| B5 | 10.89 |
| B6 | 4.23 |
| B7 | 11.94 |
| B8 | 6.02 |
| B9 | 9.12 |
| B10 | −3.24 |
| B11 | 3.64 |
| B12 | 3.14 |

System: WT MEF EVs
Test: Quantitative LC-MS/MS proteomics of EVs from ISRIB-treated WT MEF cultures
Type: cell-based, mouse
Settings: EV protein abundance, ISRIB-treated WT vs WT

| Molecule | WT + ISRIB/WT Cohen's d |
| --- | --- |
| B1 | 0.04 |
| B2 | 2.76 |
| B3 | 1.18 |
| B4 | 3.18 |
| B5 | 1.73 |
| B6 | 2.47 |
| B7 | 0.85 |
| B8 | 0.41 |
| B9 | 2.44 |
| B10 | −0.18 |
| B11 | 1.33 |
| B12 | 0.44 |
